In article PMC12236821:

Biological target: AtBAM1 ectodomain (residues 20-629) (Arabidopsis thaliana) (UniProt O49545)
Test: ITC

Chain of UniProt O49545 (O49545 20-629): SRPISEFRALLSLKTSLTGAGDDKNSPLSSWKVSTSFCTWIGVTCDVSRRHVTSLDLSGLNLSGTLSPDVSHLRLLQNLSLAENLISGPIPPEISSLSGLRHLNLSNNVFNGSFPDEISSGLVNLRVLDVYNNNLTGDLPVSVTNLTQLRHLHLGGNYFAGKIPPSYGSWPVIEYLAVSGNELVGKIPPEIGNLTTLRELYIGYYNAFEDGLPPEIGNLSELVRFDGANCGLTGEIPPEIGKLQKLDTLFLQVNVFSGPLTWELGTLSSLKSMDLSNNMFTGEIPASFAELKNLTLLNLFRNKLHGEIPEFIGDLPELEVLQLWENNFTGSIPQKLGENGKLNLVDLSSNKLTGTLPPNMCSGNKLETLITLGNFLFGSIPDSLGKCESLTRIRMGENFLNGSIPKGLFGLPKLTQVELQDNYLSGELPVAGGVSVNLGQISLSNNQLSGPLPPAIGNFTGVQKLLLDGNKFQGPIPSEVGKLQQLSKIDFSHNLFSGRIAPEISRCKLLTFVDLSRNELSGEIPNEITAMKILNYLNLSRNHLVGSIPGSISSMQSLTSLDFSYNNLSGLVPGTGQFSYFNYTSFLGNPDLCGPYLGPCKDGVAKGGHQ

- fold lower affinity than AtCLE13p: 1000 fold
Substance: AtCLV3p (Arabidopsis CLAVATA3 peptide)
